Assay results reported in patent US20250197490A1 (HBM ALPHA THERAPEUTICS, published 2025).
Numbering of substitutions follows the chain as printed. Where two headings read alike, the source gives them in different places. Blank lines part the entries; values can stand above or below the binder they belong to.

Key:
biotinylated CRH [1] = target: T1, biotinylated CRH (human and mouse, UniProt P01143 145-185 (rat entry), not fully specified; biotin; which end is not stated for the result (NT-biotin and CT-biotin forms were used)); assay: ELISA, CRH (NT biotin)
T1 construct: also called biotin-CRH; CRH (NT biotin)
T1 peptide: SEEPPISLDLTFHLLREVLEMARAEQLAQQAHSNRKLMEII
Procedure: (§1) Streptavidin (Thermo, Cat: 21125) was diluted in PBS to a concentration of 2 μg/ml. 100 μl of diluted streptavidin was added per well to ELISA microplates, and the plates were incubated overnight at 4° C. […] Subsequently, plates were washed and incubated with HRP-conjugated goat anti-human IgG (H+L) antibody (Jackson, Cat: 109-035-088) at 37° C. for 1 hour. 100 μL of 3,3′,5,5′-tetramethylbenzidine (TMB) substrate (Biopanda, Cat: TMB-S-003) was added, and the plates were incubated at room temperature for 15 minutes. 100 μL of ELISA stopping solution (Solarbio, Cat #: C1058) was added to terminate the reaction, and the optical density at 450 nm (OD450 nm) was determined by an ELISA plate reader (Molecular Devices, Spectra max 384 plus).
These potential PTMs were mutated individually either in HCDR2 alone, in LCDR1 alone, or in various combinations of mutations, as detailed in Table 3. […] Most ΔPTM variants retained functional activities.

[2] = target: T2, corticotropin-releasing hormone (CRH) peptide (human and mouse, UniProt P01143 145-185 (rat entry), not fully specified); assay: cell-based or functional assay
T2 peptide: T1 peptide

[3] = target: T3, CRH (C-Terminal Region, NT Biotin) (N-terminal Biotin-K; C-terminal NH2); assay: ELISA, CRH C-terminal region peptide (NT biotin)
T3 construct: central region plus C-terminal region of CRH; also called C-Terminal CRH; C-Ter-CRH
T3 peptide: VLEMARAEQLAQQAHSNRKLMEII
Procedure: as §1

[4] = target: T4, human UCN2 peptide, biotinylated (human, UniProt Q96RP3 72-109, limits assumed, biotin at N- or C-terminus); assay: ELISA, hUCN2 (NT biotin) and (CT biotin)
T4 construct: also called hUCN2 (NT Biotin); hUCN2 (CT Biotin)
T4 peptide (looked up): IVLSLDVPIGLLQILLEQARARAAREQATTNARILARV
Procedure: (§2) Streptavidin (Thermo, Cat: 21125) was diluted in PBS with a concentration of 2 μg/mL. 100 μL of diluted streptavidin was added per well to ELISA microplates, and the plates were incubated overnight at 4° C. Plates were blocked with ELISA blocking solution (containing 2% w/v BSA, 0.05% (v/v) Tween-20, pH 7.4 PBS buffer) at 37° C. for 1 hour, and then incubated with either 1 μg/mL hUCN1 (NT Biotin), hUCN1 (CT Biotin), hUCN2 (NT Biotin), hUCN2 (CT Biotin), hUCN3 (NT Biotin), or hUCN3 (CT Biotin) for 1 hour at 37° C. […] Plates were subsequently washed and incubated with HRP-conjugated goat anti-human IgG (H+L) antibody (Jackson, Cat: 109-035-088) at 37° C. for 1 hour. 100 μl of TMB Substrate (Biopanda, Cat: TMB-S-003) was added, and the plates were incubated at room temperature for 15 minutes. 100 μL of ELISA stopping solution (Solarbio, Cat #: C1058) was then added to terminate the reaction, and the OD450 nm was determined by an ELISA plate reader (Molecular Devices, Spectra max 384 plus).

[5] = target: T5, human UCN1 peptide, biotinylated (human, UniProt P55089 83-122, biotin at N- or C-terminus); assay: ELISA, hUCN1 (NT biotin) and (CT biotin), mAb at 100 and 10 nM
T5 construct: also called hUCN1 (NT Biotin); hUCN1 (CT Biotin)
T5 peptide (looked up): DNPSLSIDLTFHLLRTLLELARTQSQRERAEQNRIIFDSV
Procedure: as §2

biotinylated CRH [6] = target: T1, biotinylated CRH; assay: ELISA, CRH (NT biotin)
Procedure: as §1

[7] = target: T6, CRH (Central Region, CT Biotin) (C-terminal K-Biotin); assay: ELISA, CRH central region peptide (CT biotin)
T6 construct: also called Central CRH
T6 peptide: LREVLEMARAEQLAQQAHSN
Procedure: as §1

[8] = target: T7, CRH (Central Region, NT Biotin) (N-terminal Biotin-K; C-terminal NH2); assay: ELISA, CRH central region peptide (NT biotin)
T7 construct: also called Central CRH
T7 peptide: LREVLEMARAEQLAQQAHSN
Procedure: as §1

biotinylated CRH [9] = target: T1, biotinylated CRH; assay: Octet in-tandem competition on captured CRH; row = 1st mAb; competitor (2nd mAb) PR302341-34
Procedure: (§3) SA sensors (Fortebio, Cat #18-5019) were hydrated in running buffer for 10 mins.

biotinylated CRH [10] = target: T1, biotinylated CRH; assay: ELISA, CRH (CT biotin)
Procedure: as §1

[11] = target: T8, N-Terminal CRH peptide (N-terminal region plus central region, CT biotin) (human and mouse, C-terminal K-Biotin); assay: ELISA, N-Ter-CRH (CT-biotin) on streptavidin
T8 construct: also called N-Ter-CRH
T8 peptide: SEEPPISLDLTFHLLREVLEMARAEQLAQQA
Procedure: as §1

[12] = target: T9, human UCN3 peptide, biotinylated (human, UniProt Q969E3 120-157, biotin at N- or C-terminus); assay: ELISA, hUCN3 (NT biotin) and (CT biotin)
T9 construct: also called hUCN3 (NT Biotin); hUCN3 (CT Biotin)
T9 peptide (looked up): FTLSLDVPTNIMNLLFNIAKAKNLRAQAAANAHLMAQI
Procedure: as §2

[13] = target: T2, corticotropin-releasing hormone (CRH) …; assay: cell-based or functional assay
biotinylated CRH [14] = target: T1, biotinylated CRH; assay: ELISA, CRH (NT biotin)
biotinylated CRH [15] = target: T1, biotinylated CRH; assay: ELISA, CRH (NT biotin)
[16] = target: T5, human UCN1 peptide, biotinylated; assay: ELISA, hUCN1 (CT biotin)
Procedure: as §1

biotinylated CRH [17] = target: T1, biotinylated CRH; assay: Octet in-tandem competition on captured CRH; row = 1st mAb; competitor (2nd mAb) PR006669
Procedure: as §3

[18] = target: T5, human UCN1 peptide, biotinylated; assay: ELISA, hUCN1 (NT biotin)
Procedure: as §1

biotinylated CRH [19] = target: T1, biotinylated CRH; assay: ELISA, CRH (CT biotin)

B1: PR005656 (antibody, human IgG1, kappa, V domains shown)
VH: EVQLVESGGVLVQPGGSLRLSCAASGFTFSSYWMTWVRQAPGKGLEWVANIKQEGSEKYYVDSVKGRFTISRDNAKNSLFLQMNSLRAEDTAVYYCARTLIFDYWGQGTLVTVSS
VL: DIVMTQSPLSLPVTPGEPASISCRSSQSLLHSTGYNSLEWYLQKPGQSPQLLIYLGSNRASGVPDRFSGSGSGTDFTLKISRVEAEDVGIYYCMQTLQTPITFGQGTRLEIKR
EC50 (read off the curve) (biotinylated CRH [1]): ~0.03 nM
IC50 (read off the curve), CRH-induced mCRHR1 luciferase reporter [2]: ~4 nM

B2: PR005660 (antibody, human IgG1, kappa, V domains shown)
VH: B1 VH
VL: B1 VL with N36Q
binding result [3]: no binding (tested: 100 nM)
binding result [4]: no binding (tested: 100 nM)
binding result [5]: binds
EC50 (read off the curve) (biotinylated CRH [6]): ~0.03 nM
EC50 (read off the curve) (biotinylated CRH [1]): ~0.03 nM
binding result [7]: no binding (tested: 100 nM)
binding result [8]: no binding (tested: 100 nM)
% Inhibition (biotinylated CRH [9]): 90%
EC50 (read off the curve) (biotinylated CRH [10]): ~0.05 nM
EC50 [11]: 0.076 nM
binding result [12]: no binding (tested: 100 nM)
IC50 in the hCRHR1 reporter assay [13]: ~10 nM

B3: PR301788 (antibody, human IgG1, kappa, V domains shown)
VH: EMKLEESGGGLVQPGGSMKLSCVASGFTFSNYWMNWVRQSPEKGLEWVAEIRLKSNNYATHYAESVKGRFTISRDDSKSSVYLQMNNLRAEDTGIYYCTIGTLVYWGQGTLVTVSA
VL: DIVLTQSPASLAVSLGQRATISCRASQSVSTSTYNYMHWFQQKPGQPPKLLIKFASNLESGVPARFSGSGSGTDFTLNIHPVEEEDTATFYCQHSWEIPYTFGGGTKLEIKR
binding result (biotinylated CRH [14]): binds

B5: PR303394 (antibody, human IgG1, kappa, V domains shown)
VH: EVQLQQSGPELVKPGVSMKISCKASGYSFTDSTMNWVKQSHGKNLEWIGLIHPDNGGTIYNQKFKGKATLTVHKSSSTAYMELLSLTSEDSAVYYCANGFAYWGQGTLVTVSA
VL: DVVMTQTPLSLPVSLGDQASISCRSSQSLLHSNGNTYLHWYLQKPGQSPELLIYKVSNRFSGVPDRFSGSGSGTDFTLKISRVEAEDLGVYFCSQSTHVPLTFGAGTKLELKR
notes: also called analog of CTRND05
binding result [4]: no binding (tested: 100 nM)
EC50 (read off the curve) (biotinylated CRH [6]): ~0.03 nM
EC50 (read off the curve) [16]: ~0.02 nM
% Inhibition (biotinylated CRH [17]): 90%
EC50 (read off the curve) [18]: ~0.02 nM
EC50 (read off the curve) (biotinylated CRH [10]): ~0.03 nM
binding result [12]: no binding (tested: 100 nM)

B6: PR301806 (antibody, human IgG1, kappa, V domains shown)
VH: QVQLQQPGAELVKPGTSVKMSCKASGYTFTSYWMHWVKQRPGQGLEWIGDIYPGSDSTNYNEKFKSKASLTVDTSSSTAYMQLSSLTSEDSAVYYCARSITTTTFWYFDVWGAGTTVTVSS
VL: DVLMTQTPLSLPVSLGDQASISCRSSQSFVYSNGNTYLQWYLQKPGQSPKLLIYKVSNRFSGVPDRFSGSGSGTDFTLKISRVEAEDLGVYYCFQGSHVPPTFGAGTKLELKR
binding result (biotinylated CRH [14]): binds

The remaining lines, values ahead:

binding result (biotinylated CRH [15]): binds
B4: PR301803 (antibody, human IgG1, kappa, V domains shown)
VH: B3 VH with M2V, S30N, V66L, I100V
VL: B3 VL with A12V, F40Y

binding result (biotinylated CRH [15]): binds
B7: PR301780 (antibody, human IgG1, kappa, V domains shown)
VH: QIQLVQSGPELKKPGETVKISCKASGYTFTNFGLNWVKQAPGKGLKWMGWINTYTGEPTYTDDFKGRFAFSLETSASTAYLQINNLKKEDTATYFCARGTYRDDGAWFAYWGQGTLVTVSA
VL: B6 VL with S28I, F29I, Y31H, Q39E, Y92H, P101W, A105G, L111I

EC50 (read off the curve) (biotinylated CRH [19]): ~0.03 nM
B8: PR301612 (antibody, human IgG1, kappa, V domains shown)
VH: EVKLEESGGGLVQPGGSIKLSCVASGFTFSGAWMAWVRQSPEKGLEWVAEIKNKANNHATFYAESVKGRFIISRDDSKSSVYLQMNSLRAEDTGTYYCTLPDVWGTGTTVTVSS
VL: QIVLTQSPAIMSASPGERVTISCSASSSVSNMYWYLQKPGSSPKPWIYRTSNLASGVPARFSGSGSGTSYSLTISSMEAEDVATYYCQQYHSFPRTFGGGTKLEIKR
